This note sets out measurements from the supplement of paper PMC11246515.

± gives the standard deviation of the averaged measurements.

This series in a line: total protein half-life in vivo (active degradation + dilution); higher = more stable protein.
Setting [1] is: E. coli NCM3722 delta-clpP delta-lon delta-hslV, growth: N-lim chemostat, doubling time 6 h.
Setting [2] is: E. coli NCM3722 delta-clpP, growth: N-lim chemostat, doubling time 6 h.
The mark [3] stands for this setting: E. coli NCM3722 delta-hslV, growth: N-lim chemostat, doubling time 6 h.
Setting [4] is: E. coli NCM3722 delta-lon, growth: N-lim chemostat, doubling time 6 h.
Where [5] appears, read: E. coli NCM3722 delta-smpB, growth: N-lim chemostat, doubling time 6 h.
Setting [6] is: wild type E. coli NCM3722, growth: C-lim chemostat, doubling time 3 h.
The mark [7] stands for this setting: wild type E. coli NCM3722, growth: C-lim chemostat, doubling time 6 h.
[8] abbreviates: wild type E. coli NCM3722, growth: C-lim chemostat, doubling time 12 h.
Setting [9] is: wild type E. coli NCM3722, growth: N-lim chemostat, doubling time 6 h.
[10] abbreviates: wild type E. coli NCM3722, growth: N-lim chemostat, doubling time 12 h.
Setting [11] is: wild type E. coli NCM3722, growth: P-lim chemostat, doubling time 6 h.
Where [12] appears, read: wild type E. coli NCM3722, growth: P-lim chemostat, doubling time 12 h.

On to “MSNLLGPRDANGIPVPMTVDESIASMKASLLKKIKRSAYVYRVDCGGCNGCEIEIFATLSPLFDAERFGIKVVPSPRHADILLFTGAVTRAMRSPALRAWQSAPDPKICISYGACGNSGGIFHDLYCVWGGTDKIVPVDVYIPGCPPTPAATLYGFAMALGLLEQKIHARGPGELDEQPAEILHGDMVQPLRVKVDREARRLAGYRYGRQIADDYLTQLGQGEEQVARWLEAENDPRLNEIVSHLNHVVEEARIR”, for which, under setting [1], the “total protein half-life in vivo” value came out at 5.31 h.
For “MDFSIMVYAVIALVGVAIGWLFASYQHAQQKAEQLAEREEMVAELSAAKQQITQSEHWRAECELLNNEVRSLQSINTSLEADLREVTTRMEAAQQHADDKIRQMINSEQRLSEQFENLANRIFEHSNRRVDEQNRQSLNSLLSPLREQLDGFRRQVQDSFGKEAQERHTLTHEIRNLQQLNAQMAQEAINLTRALKGDNKTQGNWGEVVLTRVLEASGLREGYEYETQVSIENDARSRMQPDVIVRLPQGKDVVIDAKMTLVAYERYFNAEDDYTRESALQEHIASVRNHIRLLGRKDYQQLPGLRTLDYVLMFIPVEPAFLLALDRQPELITEALKNNIMLVSPTTLLVALRTIANLWRYEHQSRNAQQIADRASKLYDKMRLFIDDMSAIGQSLDKAQDNYRQAMKKLSSGRGNVLAQAEAFRGLGVEIKREINPDLAEQAVSQDEEYRLRSVPEQPNDEAYQRDDEYNQQSR [P0AG71]”, the “total protein half-life in vivo” value was 6.83 ± 1.6 h under setting [1]; 5.88 ± 0.096 h under setting [2]; 4.5 ± 0.072 h under setting [3]; 3.82 ± 0.52 h under setting [4]; 3.36 ± 0.004 h under setting [5]; 2.76 ± 0.076 h under setting [6]. Further, the “total protein half-life in vivo” value turned out to be 4.87 ± 0.12 h under setting [7]; 7.51 ± 0.44 h under setting [8]; 3.91 ± 0.74 h under setting [9]; 7.2 ± 1.9 h under setting [10]; 4.59 ± 1.3 h under setting [11]; 7.03 ± 0.77 h under setting [12].
As for “MEQPVIPVRNIYYMLTYAWGYLQEIKQANLEAIPGNNLLDILGYVLNKGVLQLSRRGLELDYNPNTEIIPGIKGRIEFAKTIRGFHLNHGKTVSTFDMLNEDTLANRIIKSTLAILIKHEKLNSTIRDEARSLYRKLPGISTLHLTPQHFSYLNGGKNTRYYKFVISVCKFIVNNSIPGQNKGHYRFYDFERNEKEMSLLYQKFLYEFCRRELTSANTTRSYLKWDASSISDQSLNLLPRMETDITIRSSEKILIVDAKYYKSIFSRRMGTEKFHSQNLYQLMNYLWSLKPENGENIGGLLIYPHVDTAVKHRYKINGFDIGLCTVNLGQEWPCIHQELLDIFDEYLK”, the “total protein half-life in vivo” value was 3.05 ± 0.89 h under setting [6]; 5.31 h under setting [7]; more than 16 h under setting [8]; 5.09 ± 0.42 h under setting [11]; 7.9 ± 0.14 h under setting [12].
“MDKFRVQGPTKLQGEVTISGAKNAALPILFAALLAEEPVEIQNVPKLKDVDTSMKLLSQLGAKVERNGSVHIDARDVNVFCAPYDLVKTMRASIWALGPLVARFGQGQVSLPGGCTIGARPVDLHISGLEQLGATIKLEEGYVKASVDGRLKGAHIVMDKVSVGATVTIMCAATLAEGTTIIENAAREPEIVDTANFLITLGAKISGQGTDRIVIEGVERLGGGVYRVLPDRIETGTFLVAAAISRGKIICRNAQPDTLDAVLAKLRDAGADIEVGEDWISLDMHGKRPKAVNVRTAPHPAFPTDMQAQFTLLNLVAEGTGFITETVFENRFMHVPELSRMGAHAEIESNTVICHGVEKLSGAQVMATDLRASASLVLAGCIAEGTTVVDRIYHIDRGYERIEDKLRALGANIERVKGE [P0A749]”: the “total protein half-life in vivo” value turned out to be 4.88 ± 0.64 h under setting [1]; 3.91 ± 0.28 h under setting [2]; 3.48 ± 0.22 h under setting [3]; 4.25 ± 0.55 h under setting [4]; 3.39 ± 0.23 h under setting [5]; 2.92 ± 0.043 h under setting [6]. For the same sequence, the “total protein half-life in vivo” value reads like this: under setting [7], 6.05 ± 1.2 h; under setting [8], 9.85 ± 0.48 h; under setting [9], 3.47 ± 0.084 h; under setting [10], 5.28 ± 0.25 h; under setting [11], 5.53 ± 0.1 h; under setting [12], 10.9 ± 0.56 h.
On to “MYDNLKSLGITNPEEIDRYSLRQEANNDILKIYFQKDKGEFFAKSVKFKYPRQRKTVVADGVGQGYKEVQEISPNLRYIIDELDQICQRDRSEVDLKRKILDDLRHLESVVTNKISEIEADLEKLTRK”, for which the “total protein half-life in vivo” value runs as follows: under setting [2], 4.32 ± 0.1 h; under setting [3], 4.18 ± 0.52 h; under setting [4], 4.82 ± 0.08 h; under setting [5], 3.61 ± 0.31 h; under setting [6], 3.26 ± 0.19 h; under setting [7], 5.55 ± 0.13 h. Also, the “total protein half-life in vivo” value reads like this: under setting [8], 8.4 ± 0.45 h; under setting [9], 3.77 ± 0.094 h; under setting [10], 6.16 ± 0.23 h; under setting [11], 5.45 ± 1.6 h; under setting [12], 12 ± 0.17 h.
Take “MRITIYTRNDCVQCHATKRAMENRGFDFEMINVDRVPEAAEALRAQGFRQLPVVIAGDLSWSGFRPDMINRLHPAPHAASA [P0AC65]”: under setting [1], the “total protein half-life in vivo” value turned out to be 2.48 ± 0.033 h.
As to “MSSSCIEEVSVPDDNWYRIANELLSRAGIAINGSAPADIRVKNPDFFKRVLQEGSLGLGESYMDGWWECDRLDMFFSKVLRAGLENQLPHHFKDTLRIAGARLFNLQSKKRAWIVGKEHYDLGNDLFSRMLDPFMQYSCAYWKDADNLESAQQAKLKMICEKLQLKPGMRVLDIGCGWGGLAHYMASNYDVSVVGVTISAEQQKMAQERCEGLDVTILLQDYRDLNDQFDRIVSVGMFEHVGPKNYDTYFAVVDRNLKPEGIFLLHTIGSKKTDLNVDPWINKYIFPNGCLPSVRQIAQSSEPHFVMEDWHNFGADYDTTLMAWYERFLAAWPEIADNYSERFKRMFTYYLNACAGAFRARDIQLWQVVFSRGVENGLRVAR [P0A9H7]”, the “total protein half-life in vivo” value by setting is: under setting [1], 2.09 ± 0.32 h; under setting [2], 0.86 ± 0.041 h; under setting [3], 0.465 ± 0.078 h; under setting [4], 0.662 ± 0.29 h; under setting [5], 0.503 ± 0.04 h; under setting [6], 0.474 ± 0.077 h. Besides, the “total protein half-life in vivo” value is 0.6003 ± 0.0022 h under setting [7]; 0.871 ± 0.26 h under setting [8]; 0.643 ± 0.12 h under setting [9]; 0.868 ± 0.22 h under setting [10]; 0.649 ± 0.26 h under setting [11]; 1.27 ± 0.76 h under setting [12].
As for “MILLIDNYDSFTWNLYQYFCELGADVLVKRNDALTLADIDALKPQKIVISPGPCTPDEAGISLDVIRHYAGRLPILGVCLGHQAMAQAFGGKVVRAAKVMHGKTSPITHNGEGVFRGLANPLTVTRYHSLVVEPDSLPACFDVTAWSETREIMGIRHRQWDLEGVQFHPESILSEQGHQLLANFLHR”, the “total protein half-life in vivo” value worked out at 5.21 ± 0.68 h under setting [1]; 5.02 h under setting [2]; 3.72 ± 1.2 h under setting [3]; 4.94 ± 0.68 h under setting [4]; 4.35 ± 0.22 h under setting [5]; 3.31 ± 0.049 h under setting [6]. Also, the “total protein half-life in vivo” value runs as follows: under setting [7], 5.88 ± 0.4 h; under setting [8], 10 h; under setting [10], 8.41 ± 0.11 h; under setting [11], 6.18 ± 0.066 h; under setting [12], 12.9 ± 0.99 h.
